Reference: patent publication US20240350583A1, “COMPOSITION FOR PREVENTING OR TREATING FIBROTIC DISEASES, COMPRISING HAPLN1” (Chung Ang University Industry Academic Cooperation …, priority 2021, published 2024)

Columns and labels:
Format in all cases: cell-based
[1] = system: human cardiac microvascular endothelial cell (HCMEC); assay: TGFβ1-induced fibrosis of human cardiac microvascular endothelial cells, αSMA western blot
Description: (1) Primary human cardiac microvascular endothelial cell (HCMEC; ScienCell, #6000) were seeded (5.7×10^4 cells/well) in a 6-well plate according to the experimental scheme of FIG. 4A and incubated in Endothelial cell medium (ScienCell) for 24 hours in an incubator at 37° C. 5% CO2.
(2) The plates were then treated with TGFβ1 (5 ng/ml) to induce fibrosis and incubated for 3 days.
(3) Afterwards, each well of the plate was then treated with the composition of the present disclosure at rhHAPLN1 protein content of 0, 3, 10, 30, and 100 ng/ml and pirfenidone 100 μg/mL and 200 μg/mL, respectively, and incubated for 3 days.
(4) Each sample was then treated with cell lysis buffer and harvested.
(5) Western blotting was performed on the samples. Here, anti-αSMA Ab (Abcam, ab7817), anti-GAPDH Ab (Santa Cruz, sc-32233) were used as primary antibodies and HRP-conjugated anti-mouse IgG Ab (CST, #7076) as secondary antibodies to confirm the protein expression levels of αSMA and GAPDH.

[2] = system: human colon fibroblast cell line (CCD-18Co); assay: TGFβ1-induced fibrosis of human colon fibroblast cell line, αSMA western blot
Description: (1) A human colon fibroblast cell line (CCD-18Co (human colon fibroblast cell line; ATCC, CRL-1459)) was seeded (1.5×10^5 cells/well) in a 6-well plate according to the experimental scheme in FIG. 3A and incubated in Eagle's minimum essential medium (EMEM) medium including 10% fetal bovine serum (FBS) for 24 hours in an incubator at 37° C. and 5% CO2.
(2) After replacing with serum-free EMEM medium, the medium was incubated for 24 hours.
(3) The plates were then treated with TGF-β (10 ng/ml) to induce fibrosis and incubated for 24 hours.
(§1) (4) Afterwards, each well of the plate was then treated with the composition of the present disclosure at rhHAPLN1 protein content of 0, 3, 10, 30, and 100 ng/ml and pirfenidone 100 μg/mL and 200 μg/mL, respectively, and incubated for 24 hours.
(§2) (5) Each sample was then treated with cell lysis buffer and harvested.
(6) Western blot was performed on the samples. Here, anti-αSMA Ab (Abcam, ab7817), anti-GAPDH Ab (Santa Cruz, sc-32233) were used as primary antibodies and HRP-conjugated anti-mouse IgG Ab (CST, #7076) as secondary antibodies to confirm the protein expression levels of αSMA and GAPDH.

[3] = system: human kidney renal tubule cell (Human Kidney 2, HK-2); assay: Cell morphological changes of TGFβ1-treated HK-2 cells; settings: TGFβ1 10 ng/ml 24 h
Description: (1) Human kidney renal tubule cells (HK-2) were seeded (3.0×10^5 cells/well) in a 6-well plate according to the experimental scheme of FIG. 8A and incubated in RPMI 1640 Medium (11875-093, Gibco) including 10% FBS for 24 hours in an incubator at 37° C. 5% CO2.
(2) Afterwards, the plates were washed several times with PBS, and each well of the plate was treated with TGFβ1 (10 ng/ml) and incubated for 24 hours.
(3) Subsequently, the plates were then treated with the composition of the present disclosure (rhHAPLN1 protein content of 0, 5, 10, 20, 50 and 100 ng/ml) and pirfenidone 0.2 mg/mL (200 μg/mL), respectively, and incubated for 24 hours.
(4) The wells containing each sample were then washed twice with 1×PBS, treated with 4% paraformaldehyde and fixed for 1 hour.
(5) After washing twice with 1×PBS, the shape or morphology of the cells was observed under a microscope.

[4] = system: renal proximal tubule epithelial cell (RPTEC); assay: Age-induced fibrosis of RPTEC (passage 11), αSMA immunofluorescence; settings: aged cells (11th passage culture), 72 hours
Description: (1) Renal proximal tubule epithelial cell ([…]) in 12-well plates and cultured in complete renal epithelial cell medium (ATCC PCS-400-030+ATCC PCS-400-040) in an incubator at 37° C. 5% CO2 for 24 hours.
(2) Subsequently, the plates were then treated with the composition of the present disclosure (rhHAPLN1 protein content of 0, 10, 20, 50 and 100 ng/ml) and pirfenidone 0.2 mg/mL (200 μg/mL), respectively, and cultured for 72 hours.
(3) Afterwards, each well was washed twice with PBS, then treated with 4% paraformaldehyde and fixed for 1 hour.
(4) After washing four times with 1×PBS, the wells were treated with 1×PBST (1×PBS+0.1% Triton X-100) containing 1% BSA and blocked for 2 hours.
(5) Primary antibody against αSMA (Abcam ab7817) was diluted 1:200 in 1×PBSTdp and treated and incubated overnight at 4° C.
(6) The next day, the blot was washed four times with 1×PBST.
(7) After treatment with secondary antibody (anti-mouse IgG Alexa Fluor™ 488 1:500 (Invitrogen, A28175)) and DAPI 1:2000 (Invitrogen, D1306), the cells were incubated at room temperature for 1 hour.
(8) Afterwards, 50 ul of Vectashield (Vectorlabs, H-1000) was added, covered with a coverslip, and photographed with a fluorescence microscope.

[5] = system: human hepatic stellate cell (HHSC); assay: TGFβ1-induced fibrosis of human hepatic stellate cells, αSMA western blot
Description: (1) Human hepatic stellate cells (primary human hepatic stellate cell (HHSC; iXCells Biotechnologies, 10HU-210) were seeded (1.5×10^5 cells/well) in a 6-well plate according to the experimental scheme in FIG. 2A and incubated in stellate cell growth medium (iXCells Biotechnologies, MD-0014) in an incubator at 37° C. 5% CO2 for 24 hours.
(2) After replacing with serum-free DMEM medium, the medium was incubated for 24 hours.
(3) The plates were then treated with TGF31 (2 ng/ml) to induce fibrosis and incubated for 24 hours.
as §1, §2
(6) Western blotting was performed on the samples. Here, anti-αSMA Ab (Abcam, ab7817), anti-GAPDH Ab (Santa Cruz, sc-32233) were used as primary antibodies and HRP-conjugated anti-mouse IgG Ab (CST, #7076) as secondary antibodies to confirm the protein expression levels of αSMA and GAPDH.

[6] = all rhHAPLN1 contents, pirfenidone 100 and 200 μg/mL

Molecule: Cc1ccc(=O)n(-c2ccccc2)c1 [pirfenidone, reference compound]
- expression level of αSMA compared to composition that does not include rhHAPLN1 protein ([1]; pirfenidone 100 and 200 μg/mL): higher than when treated with a composition that does not include rhHAPLN1 protein
- inhibition at 100 µg/mL ([2]; Homo sapiens, CCD-18Co, pirfenidone 100 μg/mL): 10.6%
- relative level of αSMA (value used in the inhibition formula; TGFβ1 alone 3.82, untreated 1) ([2]; pirfenidone 100 μg/mL): 3.52
- expression level of αSMA at 200 μg/mL versus 100 μg/mL ([2]; pirfenidone 200 μg/mL): higher expression level of αSMA than 100 μg/mL
- cell morphology after TGFβ1-induced sharp fibrotic form (FIG. 8B) ([3]; then pirfenidone 0.2 mg/mL 24 h): round
- αSMA stained fluorescent areas (FIG. 10B) ([4]; pirfenidone 0.2 mg/ml): fewer stained fluorescent areas appeared

B1: rhHAPLN1: recombinant human HAPLN1 protein of SEQ ID NO: 1 produced in CHO-K1 cells, stabilized in acetic acid buffer, sucrose, PS80, pH 5.0 (protein, listed as Homo sapiens)
chain: MKSLLLLVLISICWADHLSDNYTLDHDRAIHIQAENGPHLLVEAEQAKVFSHRGGNVTLPCKFYRDPTAFGSGIHKIRIKWTKLTSDYLKEVDVFVSMGYHKKTYGGYQGRVFLKGGSDSDASLVITDLTLEDYGRYKCEVIEGLEDDTVVVALDLQGVVFPYFPRLGRYNLNFHEAQQACLDQDAVIASFDQLYDAWRGGLDWCNAGWLSDGSVQYPITKPREPCGGQNTVPGVRNYGFWDKDKSRYDVFCFTSNFNGRFYYLIHPTKLTYDEAVQACLNDGAQIAKVGQIFAAWKILGYDRCDAGWLADGSVRYPISRPRRRCSPTEAAVRFVGFPDKKHKLYGVYCFRAYN
- expression level of αSMA compared to composition that does not include rhHAPLN1 protein (FIG. 4C) ([1]; TGFβ1 5 ng/ml 3 days, then rhHAPLN1 3, 10, 30, 100 ng/ml 3 days): significantly lower
- anti-fibrotic action from αSMA western blot band, compared to pirfenidone (FIG. 4B) [1, 6]: much better anti-fibrotic action compared to pirfenidone
- rhHAPLN1 protein content showing the most excellent anti-fibrotic efficacy ([1]; αSMA): 3 ng/mL
- expression level of αSMA compared to composition that does not include rhHAPLN1 protein (FIG. 3C) ([2]; TGFβ1 10 ng/ml 24 h, then rhHAPLN1 3, 10, 30, 100 ng/ml 24 h): significantly lower
- anti-fibrotic action from αSMA western blot band, compared to pirfenidone (FIG. 3B) [2, 6]: much better anti-fibrotic action compared to pirfenidone
- anti-fibrotic efficacy of rhHAPLN1 relative to pirfenidone at 100 μg/mL ([2]; rhHAPLN1 10 ng/ml): approximately 7 folds
- anti-fibrotic efficacy relative to pirfenidone at 200 μg/mL ([2]; rhHAPLN1 10 ng/ml): much higher than twice
- inhibition of TGFβ1-induced αSMA ([2]; rhHAPLN1 10 ng/ml): 71.6%
- relative level of αSMA (value used in the inhibition formula; TGFβ1 alone 3.82, untreated 1) ([2]; rhHAPLN1 10 ng/ml): 1.8
- rhHAPLN1 protein content showing the most excellent anti-fibrotic efficacy ([2]; αSMA): 10 ng/mL
- cell morphology after TGFβ1-induced sharp fibrotic form (FIG. 8B) ([3]; then rhHAPLN1 5-100 ng/ml 24 h): the shape of the cells changed to round
- αSMA stained fluorescent areas compared to composition without rhHAPLN1 (FIG. 10B) ([4]; rhHAPLN1 50 ng/ml and 100 ng/ml): fewer stained fluorescent areas appeared
- expression level of αSMA compared to composition that does not include rhHAPLN1 protein (FIG. 2C) ([5]; TGFβ1 (2 ng/ml) 24 h, then rhHAPLN1 3, 10, 30, 100 ng/ml 24 h): significantly lower
- anti-fibrotic action from αSMA western blot band, compared to pirfenidone (FIG. 2B) [5, 6]: much better anti-fibrotic action compared to pirfenidone
- anti-fibrotic efficacy compared to pirfenidone at 100 μg/mL and 200 μg/mL ([5]; rhHAPLN1 3 ng/ml, αSMA): much higher anti-fibrotic efficacy
- rhHAPLN1 protein content showing the most excellent anti-fibrotic efficacy ([5]; αSMA): 3 ng/mL
